The values that follow come from IntAct's records for PubMed 10921873.

Sequences and labels used below:
B1: Coatomer subunit alpha (Saccharomyces cerevisiae), P53622 (parent)
chain: MKMLTKFESKSTRAKGIAFHPSRPWVLVALFSSTIQLWDYRMGTLLHRFEDHEGPVRGLDFHPTQPIFVSAGDDYTIKVWSLDTNKCLYTLTGHLDYVRTVFFHRELPWIISASDDQTIRIWNWQNRKEIACLTGHNHFVMCAQFHPTDDLIVSASLDETIRIWDISGLRKRHSAPGTSSFEEQMSAQQNLLDGSLGDCVVKFILEGHTRGVNWASFHPTLPLIVSGSDDRQVKLWRMSATKAWEVDTCRGHTNNVDSVIFHPHQNLIISVGEDKTLRVWDLDKRTPVKQFKRENDRFWLIAAHPHINLFGAAHDSGIMVFKLDRERPCSFIHQNQLFFVNAEKQIQSFNFQKRVASLPYASLKGIGQPWDAFRSISYNPSQHSVLVNEANGKFALVILPKQPVGAVEPTSVTQDTGNFATFVGRNRFVVYNKNTESVEVRSLENKVTRNIKVEETVRTIVAAGPGSVLVIHPREVILYDVQQGKKVSQLAVKNVKYVSWSLDGQYVALMSKHTITLATKKLELINSMHETIRIKSAAWDETGVLIYSTLNHIRYSLLNGDRGIIKTLEKTLYITKVQGKLVYCLNREGEIEILTIDPTEYRFKKALVNKNFPEVLRLIKDSNLVGQNIISYLQKSGYPEIALQFVQDPHIRFDLALEYGNLDVALDEAKKLNDSSTWERLIQEALAQGNASLAEMIYQTQHSFDKLSFLYLVTGDVNKLSKMQNIAQTREDFGSMLLNTFYNNSTKERSSIFAEGGSLPLAYAVAKANGDEAAASAFLEQAEVDEQDVTLPDQMDASNFVQRPVISKPLEKWPLKEAELSYFEKAVLGQIDDLTIDDETPAVNTTQEQEEPLGEENFNDEDIGEDEGAWDLGDEDLDVGEELPEEVEQGEITSPAQEVETAIWIKNSKLPAVLVAAGAFDAAVQALSKQVGVVKLEPLKKYFTNIYEGCRTYIPSTPCELPAQLGYVRAYDDTVSEDQILPYVPGLDVVNEKMNEGYKNFKLNKPDIAIECFREAIYRITLLMVDDAEDEKLAHKILETAREYILGLSIELERRSLKEGNTVRMLELAAYFTKAKLSPIHRTNALQVAMSQHFKHKNFLQASYFAGEFLKIISSGPRAEQARKIKNKADSMASDAIPIDFDPYAKFDICAATYKPIYEDTPSVSDPLTGSKYVITEKDKIDRIAMISKIGAPASGLRIRV
partner: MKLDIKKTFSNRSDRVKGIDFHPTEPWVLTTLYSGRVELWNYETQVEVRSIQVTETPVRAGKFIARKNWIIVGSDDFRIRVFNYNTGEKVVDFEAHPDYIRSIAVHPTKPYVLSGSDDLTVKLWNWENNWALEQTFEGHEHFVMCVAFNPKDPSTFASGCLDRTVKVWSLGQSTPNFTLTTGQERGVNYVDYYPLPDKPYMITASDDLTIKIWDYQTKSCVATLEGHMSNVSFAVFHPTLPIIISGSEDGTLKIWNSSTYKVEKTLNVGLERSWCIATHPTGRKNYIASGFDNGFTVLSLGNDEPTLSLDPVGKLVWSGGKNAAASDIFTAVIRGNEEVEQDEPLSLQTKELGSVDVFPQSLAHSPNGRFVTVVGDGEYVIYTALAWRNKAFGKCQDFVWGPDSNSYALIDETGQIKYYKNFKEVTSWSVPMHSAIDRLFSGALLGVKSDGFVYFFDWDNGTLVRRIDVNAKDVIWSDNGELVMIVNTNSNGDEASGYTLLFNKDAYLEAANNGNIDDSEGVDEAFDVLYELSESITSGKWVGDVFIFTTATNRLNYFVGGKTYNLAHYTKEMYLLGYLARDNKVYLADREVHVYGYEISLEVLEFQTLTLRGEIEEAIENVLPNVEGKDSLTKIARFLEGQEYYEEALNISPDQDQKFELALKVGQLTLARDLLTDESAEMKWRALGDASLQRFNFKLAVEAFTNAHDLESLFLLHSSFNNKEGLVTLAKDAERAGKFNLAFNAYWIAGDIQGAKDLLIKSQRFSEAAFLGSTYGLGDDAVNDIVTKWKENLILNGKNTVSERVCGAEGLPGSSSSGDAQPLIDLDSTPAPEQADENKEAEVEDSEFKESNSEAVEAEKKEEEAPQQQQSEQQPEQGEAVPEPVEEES

The test covers variants of B1. As to conditions: with copb2_yeast SEC27, P41811.
Consider S1188F, for which the “effect of a mutation on the interaction” value is “decreasing interaction”.
